In article doi:10.1101/2021.02.05.429900:
Each block holds one substance with its values, some of them ahead of it.

Experiments:
Experiment in all cases: FRET or BRET
[1] = biological target: Gβ3 with cpVenus-Gγ9 (Gβγ of the G13 BRET sensor) (UniProt P16520)
[2] = biological target: cpVenus-tagged Gβγ of the G15 BRET sensor (UniProt P62873)
[3] = biological target: cpVenus-tagged Gβγ of the Gs BRET sensor (UniProt P62873)

UniProt P16520, sequence (P16520 whole entry, chain 1 of 2): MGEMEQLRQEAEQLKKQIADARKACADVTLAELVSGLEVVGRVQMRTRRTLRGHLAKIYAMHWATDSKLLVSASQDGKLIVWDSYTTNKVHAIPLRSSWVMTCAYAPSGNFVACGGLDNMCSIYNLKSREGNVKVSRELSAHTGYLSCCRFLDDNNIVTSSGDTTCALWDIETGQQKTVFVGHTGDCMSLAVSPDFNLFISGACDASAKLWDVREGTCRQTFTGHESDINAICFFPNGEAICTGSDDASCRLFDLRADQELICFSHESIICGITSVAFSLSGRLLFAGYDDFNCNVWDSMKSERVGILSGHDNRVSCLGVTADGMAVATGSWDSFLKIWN
UniProt P16520, sequence (O14610 whole entry, chain 2 of 2, further chain): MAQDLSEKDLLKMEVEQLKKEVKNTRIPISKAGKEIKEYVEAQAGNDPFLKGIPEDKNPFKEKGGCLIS

amplitude of the BRET response (ΔBRET) on agonist activation of TBXA2R [1]: -35%
Substance: Gα13-Nluc (G13 BRET sensor) (from UniProt Q14344 1-377) (natural protein)

amplitude of the BRET response (ΔBRET) on agonist activation of TBXA2R [2]: -10%
Substance: Nluc-tagged Gα15 (G15 BRET sensor) (from UniProt P30679 1-374) (natural protein)

amplitude of the BRET response (ΔBRET) on agonist activation of β2AR [3]: -10%
Substance: Nluc-tagged Gαs (Gs BRET sensor) (from UniProt P63092 1-394) (natural protein)
